According to article PMC3518219 (The Journal of Cell Biology, 2012):

Target: T1, GST-RadilPDZ (human, UniProt Q96JH8 870-1075)
T1 sequence (looked up): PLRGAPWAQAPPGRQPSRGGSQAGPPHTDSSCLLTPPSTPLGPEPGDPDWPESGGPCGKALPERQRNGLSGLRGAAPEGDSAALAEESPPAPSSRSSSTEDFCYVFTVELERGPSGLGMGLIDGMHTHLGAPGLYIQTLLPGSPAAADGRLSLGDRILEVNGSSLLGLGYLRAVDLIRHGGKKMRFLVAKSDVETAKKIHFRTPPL
Assay: pull-down

- binding result: binds
B1: Flag-KIF14-ctail-IQWV (domain or fragment, human, UniProt Q15058 1483-1648, looked up)
chain: VQEENFEYQDFKRMVNRAPEFLKLKHCLEKAIEIIISALKGCHSDINLLQTCVESIRNLASDFYSDFSVPSTSVGSYESRVTHIVHQELESLAKSLLFCFESEESPDLLKPWETYNQNTKEEHQQSKSSGIDGSKNKGVPKRVYELHGSSPAVSSEECTPSRIQWV
